# Source: the RNAGym collection of RNA variant scans (doi:10.1093/molbev/msab373)
# B1: Azoarcus group I ribozyme (parent)
# chain: GUGCCUUGCGCCGGGAAACCACGCAAGGGAUGGUGUCAAAUUCGGCGAAACCUAAGCGCCCGCCCGGGCGUAUGGCAACGCCGAGCCAAGCUUCGGCGCCUGCGCCGAUGAAGGUGUAGAGACUAGACGGCACCCACCUAAGGCAAACGCUAUGGUGAAGGCAUAGUCCAGGGAGUGGCGAAAGUCACACAAACCGG
# Variants of: B1
# Experiment: reverse-splicing fitness (ratio to wild type); higher = more active; in vitro selection; Mg2+ level not given
# How it was run: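 An in vitro group I ribozyme library with randomized positions was T7-transcribed and gel-purified. In triplicate, 10 pmol RNA in EPPS pH 7.5 was reacted with 50 pmoles of a 30-nt RNA substrate for 1 h at 37 °C across several added MgCl2 levels (1–48 mM), then stopped with EDTA. Products were reverse transcribed from a substrate-complementary primer, PCR-amplified and sequenced (HiSeq 4000). Fitness is a variant's read proportion after selection over that before, normalised to wild type.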
row,Variant,reverse-splicing fitness
1,A120G A145G C150A C169G U176G,0.00637
2,A120G A145G C150A C169G U176A,0.0656
3,A120G A145G C150A C169G U176C,0.0972
4,A120G A145G C150U C169G U176G,0.00838
5,A120G A145G C150U C169G U176C,0.216
6,A120G A145G C150U C169G U176A,0.149
7,A120C C150G C169U U176A,0.0117
8,A120C C150G C169U U176C,0.0388
9,A120C C150G C169U U176G,0.00544
10,A120G C150G C169U U176A,0.0245
11,A120G C150G C169U U176C,0.0422
12,A120G C150G C169U U176G,0.00662
13,A120G A145C C150G U176G,0.0061
14,A120G A145C C150G U176A,0.0444
15,A120G A145C C150G U176C,0.0556
16,A120G A145G C169G,0.639
17,A120G A145G C169U,0.441
18,A120G A145G C169A,0.424
19,A120G A145C C169A U176C,0.157
20,A120G A145C C169A U176G,0.0075
21,A120G A145C C169A U176A,0.0967
22,A120G A145U C150U U176G,0.0161
23,A120G A145U C150U U176C,0.184
24,A120G A145U C150U U176A,0.155

row,Variant,reverse-splicing fitness
1,A120G A145C C150U C169A U176A,0.0422
2,A120G A145C C150U C169A U176G,0.00586
3,A120G A145C C150U C169A U176C,0.0659
4,A120G A145G C169G U176G,0.0103
5,A120G A145G C169G U176A,0.221
6,A120G A145G C169G U176C,0.268
7,A120C C150A C169G U176C,0.0156
8,A120C C150A C169G U176G,0.00418
9,A120C C150A C169G U176A,0.0161
10,A120G A145C C150U C169A,0.123
11,A120G A145C C150U C169U,0.153
12,A120G A145C C150U C169G,0.213
13,A120G A145G C150A C169U U176A,0.0726
14,A120G A145G C150A C169U U176C,0.0707
15,A120G A145G C150A C169U U176G,0.00665
16,A120G C169U U176C,0.204
17,A120G C169U U176G,0.0211
18,A120G C169U U176A,0.179
19,A120C C150A C169U,0.098
20,A120C C150A C169A,0.0141
21,A120C C150A C169G,0.00864
22,A120G A145U C150G C169G U176C,0.011
23,A120G A145U C150G C169G U176G,0.00487
24,A120G A145U C150G C169G U176A,0.024

row,Variant,reverse-splicing fitness
1,A120G A145C C150A C169G U176G,0.00572
2,A120G A145C C150A C169G U176A,0.0447
3,A120G A145C C150A C169G U176C,0.0391
4,A120G A145G C150U,0.436
5,A120G A145G C150A,0.0988
6,A120G A145G C150G,0.088
7,A120C C150G C169A U176G,0.00553
8,A120C C150G C169A U176A,0.0108
9,A120C C150G C169A U176C,0.00991
10,A120C C150G U176G,0.0145
11,A120C C150G U176C,0.114
12,A120C C150G U176A,0.0876
13,A120C C150U C169U U176C,0.143
14,A120C C150U C169U U176G,0.0106
15,A120C C150U C169U U176A,0.118
16,A120G A145U C150A C169G U176A,0.0455
17,A120G A145U C150A C169G U176C,0.061
18,A120G A145U C150A C169G U176G,0.00649
19,A120G A145G C150G C169G U176A,0.0179
20,A120G A145G C150G C169G U176G,0.00607
21,A120G A145G C150G C169G U176C,0.0152
22,A120G A145C C169U U176C,0.19
23,A120G A145C C169U U176G,0.0181
24,A120G A145C C169U U176A,0.181

row,Variant,reverse-splicing fitness
1,A120G A145U U176G,0.0162
2,A120G A145U U176C,0.269
3,A120G A145U U176A,0.197
4,A120G A145G C169U U176A,0.172
5,A120G A145G C169U U176C,0.199
6,A120G A145G C169U U176G,0.0155
7,A120G C150A C169U,0.071
8,A120G C150A C169A,0.0602
9,A120G C150A C169G,0.0903
10,A120G C150G C169A U176A,0.0128
11,A120G C150G C169A U176G,0.0055
12,A120G C150G C169A U176C,0.0257
13,A120G C150U,0.318
14,A120G C150A,0.0647
15,A120G C150G,0.0593
16,A120C C150U C169G U176A,0.0153
17,A120C C150U C169G U176G,0.00427
18,A120C C150U C169G U176C,0.0142
19,A120G A145C C169G U176G,0.0119
20,A120G A145C C169G U176A,0.202
21,A120G A145C C169G U176C,0.235
22,A120G A145U C169A U176C,0.166
23,A120G A145U C169A U176G,0.00923
24,A120G A145U C169A U176A,0.113

row,Variant,reverse-splicing fitness
1,A120G A145C C150G C169A,0.0659
2,A120G A145C C150G C169G,0.114
3,A120G A145C C150G C169U,0.0909
4,A120G C150A U176C,0.058
5,A120G C150A U176A,0.0445
6,A120G C150A U176G,0.0094
7,A120G A145G C150A U176C,0.0809
8,A120G A145G C150A U176A,0.0568
9,A120G A145G C150A U176G,0.0109
10,A120G A145U C150G C169A U176C,0.0317
11,A120G A145U C150G C169A U176G,0.00439
12,A120G A145U C150G C169A U176A,0.0196
13,A120C C150U,0.723
14,A120C C150A,0.241
15,A120C C150G,0.187
16,A120G A145U C150U C169U U176G,0.0135
17,A120G A145U C150U C169U U176A,0.14
18,A120G A145U C150U C169U U176C,0.162
19,A120G C150G U176A,0.0287
20,A120G C150G U176C,0.0392
21,A120G C150G U176G,0.00499
22,A120G A145G C150G C169G,0.106
23,A120G A145G C150G C169U,0.094
24,A120G A145G C150G C169A,0.0607

row,Variant,reverse-splicing fitness
1,A120G A145U C150U C169A U176C,0.14
2,A120G A145U C150U C169A U176A,0.08
3,A120G A145U C150U C169A U176G,0.00609
4,A120G C150A C169G U176G,0.00584
5,A120G C150A C169G U176A,0.0606
6,A120G C150A C169G U176C,0.0784
7,A120G A145U C169U,0.446
8,A120G A145U C169G,0.618
9,A120G A145U C169A,0.447
10,A120G U176C,0.222
11,A120G U176G,0.0139
12,A120G U176A,0.213
13,A120G A145G C150U U176A,0.151
14,A120G A145G C150U U176C,0.212
15,A120G A145G C150U U176G,0.0181
16,A120G A145U C150A U176C,0.0519
17,A120G A145U C150A U176A,0.0378
18,A120G A145U C150A U176G,0.00673
19,A120C C150A C169A U176C,0.011
20,A120C C150A C169A U176G,0.00451
21,A120C C150A C169A U176A,0.0193
22,A120G C169U,0.418
23,A120G C169G,0.64
24,A120G C169A,0.444

row,Variant,reverse-splicing fitness
1,A120G A145U C150U C169G,0.487
2,A120G A145U C150U C169U,0.33
3,A120G A145U C150U C169A,0.33
4,A120G A145C C150G C169A U176A,0.016
5,A120G A145C C150G C169A U176G,0.00448
6,A120G A145C C150G C169A U176C,0.031
7,A120G A145C,0.479
8,A120G A145G,0.503
9,A120G A145U,0.508
10,A120G C150U U176A,0.125
11,A120G C150U U176C,0.164
12,A120G C150U U176G,0.0157
13,A120C C150G C169U,0.0809
14,A120C C150G C169G,0.00811
15,A120C C150G C169A,0.0115
16,A120G A145C C150U C169G U176G,0.00726
17,A120G A145C C150U C169G U176C,0.107
18,A120G A145C C150U C169G U176A,0.102
19,A120C A145U U176A,0.726
20,A120C A145U U176C,0.7
21,A120C A145U U176G,0.318
22,A120G A145C C150G C169U U176C,0.054
23,A120G A145C C150G C169U U176A,0.0356
